Results published in US20210009685A1 (ALTEOGEN, published 2021).
Changes are numbered by the printed parent chain.

Columns and labels:
FOLR1-Fc [1] = molecular target: T1, FOLR1-Fc (UniProt P15328 25-234, limits assumed); experiment: ELISA, FOLR1-Fc coated, antibody titrated (experiment with vAb1)
T1 construct: also called FOLR1 (ELISA coating); not shown: Fc part
Method: (§1) For the purpose of comparing the binding affinities of the primarily selected clones with each other, ELISA was performed at different clone concentrations in the following manner. 25 μL of FOLR1 was added to each well of a 96-well plate at a concentration of 1 μg/mL, coated on the plate at room temperature for 1 hour, and then blocked with 180 μL of 3% skim milk at room temperature for 1 hour. During blocking, samples to be used as primary antibodies were prepared. As primary antibodies, samples selected by screening were used. The samples were diluted to a concentration of 0.1 to 100 nM (0, 0.1, 0.3, 1, 3, 10, 30, and 100 nM) and cold-stored until use. After blocking, 3% skim milk was removed, and 25 μL of the primary antibody was added to each well and allowed to react at room temperature for 1 hour or more. After completion of the reaction, each well was washed three times with PBS-Tween20 (0.1%) buffer. […] After about 5 minutes, 25 μL of 1 M H₂SO₄ was added to each well to stop the reaction, and the absorbance at a wavelength of 450 nm was measured. From the measurement results, the EC (Effector concentration) value was calculated using the GraphPad Prism 7 program.
(§2) The measured values are obtained in different experiments for comparison with the parent antibody.

FOLR1-Fc [2] = molecular target: T1, FOLR1-Fc; experiment: ELISA, FOLR1-Fc coated, antibody titrated (experiment with vAb3, vAb4, vAb5)
Method: as §1, §2

FOLR1-Fc [3] = molecular target: T1, FOLR1-Fc; experiment: ELISA, FOLR1-Fc coated (experiment with vAb3, vAb4, vAb5); the parent is the reference
Method: as §1, §2

FOLR1-Fc [4] = molecular target: T1, FOLR1-Fc; experiment: ELISA, FOLR1-Fc coated (experiment with vAb1); the parent is the reference
[5] = molecular target: T2, Folate receptor alpha (FOLR1) (human, UniProt P15328 25-234, limits assumed); experiment: SPR, Biacore3000, FOLR1 immobilised; the parent is the reference
T2 construct: Antigen printed simply as FOLR1 for the panning, the clone ELISA and the SPR chip; also called human FOLR1; folate receptor-α
Method: (§3) To measure the binding affinity of the selected clone for FOLR1, SPR measurement was performed using a Biacore3000. Before each sample was loaded, a CM5 sensor chip was activated with 0.1 M NHS/0.4 M EDC, and then FOLR1 (20 μg/mL in 10 mM acetate, pH 5.0) was immobilized thereon. Then, unreacted NHS was deactivated with 1 M ethanolamine. 250 μL of each sample was prepared at concentrations of 1, 2, 5, 10, 20 and 40 nM, and association and dissociation sensorgrams were obtained while each sample was flushed at 30 μl/min. The sensor chip was regenerated with 10 mM glycine (pH 2.1). The obtained sensorgrams were analyzed using the BIAevaluation software, and the KD values were calculated.
(§4) To measure the binding affinity of the modified antibody vAb1 produced in Example 2 for FOLR1, an SPR assay was performed using a Biacore3000, in the same manner as described in Examples 1-5. The sensorgram was analyzed using the BIAevaluation software, and the KD value was calculated. […] This value is similar to the relative ratio of the values obtained using ELISA.

[6] = molecular target: T2, Folate receptor alpha (FOLR1); experiment: SPR, Biacore3000, FOLR1 immobilised on CM5 chip, antibody as analyte
Method: as §3, §4

FOLR1-Fc [7] = molecular target: T1, FOLR1-Fc; experiment: ELISA, FOLR1-Fc coated (experiment with vAb2); the parent is the reference
FOLR1-Fc [8] = molecular target: T1, FOLR1-Fc; experiment: ELISA, FOLR1-Fc coated, antibody titrated (experiment with vAb2)
Method: as §1, §2

FOLR1-Fc [9] = molecular target: T1, FOLR1-Fc; experiment: ELISA, FOLR1-Fc coated
Method: (§5) For the purpose of comparing the binding affinities of the primarily selected clones with each other, ELISA was performed at different clone concentrations in the following manner. 25 μL of FOLR1 was added to each well of a 96-well plate at a concentration of 1 μg/mL, coated on the plate at room temperature for 1 hour, and then blocked with 180 μL of 3% skim milk at room temperature for 1 hour. During blocking, samples to be used as primary antibodies were prepared. As primary antibodies, samples selected by screening were used. The samples were diluted to a concentration of 0.1 to 100 nM (0, 0.1, 0.3, 1, 3, 10, 30, and 100 nM) and cold-stored until use. After blocking, 3% skim milk was removed, and 25 μL of the primary antibody was added to each well and allowed to react at room temperature for 1 hour or more. After completion of the reaction, each well was washed three times with PBS-Tween20 (0.1%) buffer. As a secondary antibody, HA-HRP was diluted 3,000-fold with 3% skim milk, and 25 μL of the dilution was added to each well and allowed to react at room temperature for 1 hour or more. After completion of the reaction, each well was washed three times with PBS-Tween20 (0.1%), and 25 μL of substrate TMB was added to each well to confirm color development. After about 5 minutes, 25 μL of 1 M H₂SO₄ was added to each well to stop the reaction, and the absorbance at a wavelength of 450 nm was measured. From the measurement results, the EC (Effector concentration) value was calculated using the GraphPad Prism 7 program.
as §2

FOLR1-Fc [10] = molecular target: T1, FOLR1-Fc; experiment: ELISA, FOLR1-Fc coated, antibody titrated
Method: as §5, §2

[11] = molecular target: T2, Folate receptor alpha (FOLR1); experiment: SPR, Biacore3000, FOLR1 immobilised
Method: as §3, §4

T2 sequence (P15328 25-234 limits assumed): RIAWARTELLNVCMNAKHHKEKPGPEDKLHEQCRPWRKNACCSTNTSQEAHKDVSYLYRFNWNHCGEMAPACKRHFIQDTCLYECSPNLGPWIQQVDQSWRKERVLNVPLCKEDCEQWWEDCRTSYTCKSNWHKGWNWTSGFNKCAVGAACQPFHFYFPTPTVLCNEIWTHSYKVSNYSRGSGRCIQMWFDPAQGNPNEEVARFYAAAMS
T1 sequence (P15328 25-234 limits assumed): as above

B1: Parent antibody (anti-FOLR1 antibody of US2005/0232919 A1) (antibody, V domains shown)
VH: EVQLVESGGGVVQPGRSLRLSCSASGFTFSGYGLSWVRQAPGKGLEWVAMISSGGSYTYYADSVKGRFAISRDNAKNTLFLQMDSLRPEDTGVYFCARHGDDPAWFAYWGQGTPVTVSS
VL: DIQLTQSPSSLSASVGDRVTITCSVSSSISSNNLHWYQQKPGKAPKPWIYGTSNLASGVPSRFSGSGSGTDYTFTISSLQPEDIATYYCQQWSSYPYMYTFGQGTKVEIK
notes: also called WT
B1 was tested, and the EC50 (FOLR1-Fc [1]) was 0.011 µg/mL, the EC50 (FOLR1-Fc [2]) was 3.04 ng/mL and the “Relative Potency” value (FOLR1-Fc [3]) was 1 fold (reference). For the same binder, the “Relative Potency” value (FOLR1-Fc [4]) was 1 fold (reference), the “Relative Potency” value [5] was 1 fold (reference) and the Ka [6] was 1.05e+09 M⁻¹. The Kd [6] was 0.96 nM, the koff [6] was 0.000401 s⁻¹ and the kon [6] was 419000 M⁻¹ s⁻¹. For the same binder, the “Relative Potency” value (FOLR1-Fc [7]) was 1 fold (reference) and the EC50 (FOLR1-Fc [8]) was 0.0118 µg/mL.

B2: Modified antibody vAb1 (antibody, V domains shown)
VH: B1 VH with P103V
VL: B1 VL with V25A, S28G, I29L, N32S, N33Y, N54S, L55R
notes: Carries modified CDR-H3, CDR-L1 and CDR-L2
B2 was tested, and the “Relative Potency” value (FOLR1-Fc [9]) was 4.48 fold against parent antibody, the EC50 (FOLR1-Fc [10]) was 2.45 ng/mL and the Ka [6] was 4.17e+09 M⁻¹. It also gave a Kd [6] of 0.24 nM, a koff [6] of 0.000147 s⁻¹ and a kon [6] of 612000 M⁻¹ s⁻¹. The “Relative Potency” value [11] was 4 fold against parent antibody.
